# Source: patent publication US20240261333A1, “NOVEL TARGETS FOR ENHANCING ANTI-TUMOR IMMUNITY” (THE BROAD INSTITUTE, INC., priority 2021, published 2024)
# Target: T1, B3GNT2 (Homo sapiens, UniProt Q9NY97)
# T1 construct: The respective ORFs of candidate genes [CD274 (NM_014143), MCL1 (NM_021960), JUNB (NM_002229), and B3GNT2 (NM_006577)] were synthesized; expressed in transfected cells; host or cells: A375 melanoma cells (lentiviral ORF overexpression)
# T1 sequence (Q9NY97 1-397): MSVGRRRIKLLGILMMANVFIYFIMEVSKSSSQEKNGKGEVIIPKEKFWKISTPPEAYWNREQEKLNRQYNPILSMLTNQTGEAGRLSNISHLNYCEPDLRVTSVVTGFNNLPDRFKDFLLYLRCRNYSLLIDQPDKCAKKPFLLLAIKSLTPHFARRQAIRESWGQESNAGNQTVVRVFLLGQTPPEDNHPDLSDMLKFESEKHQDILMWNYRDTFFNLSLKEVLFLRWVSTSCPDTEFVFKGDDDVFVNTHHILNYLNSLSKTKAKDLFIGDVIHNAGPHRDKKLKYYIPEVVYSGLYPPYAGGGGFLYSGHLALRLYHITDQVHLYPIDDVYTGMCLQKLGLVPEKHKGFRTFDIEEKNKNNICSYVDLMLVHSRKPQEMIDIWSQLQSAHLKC
# Experiment: Co-IP of FLAG-tagged B3GNT2 followed by mass spectrometry
# Format: cell-based
# Set-up: C-term IgG / C-term flag: unit not given here
# Method: Cells were plated in 10-cm cell culture dishes and grown to 60-80% confluency. For each condition, two biological replicates were harvested for co-IP. Cells were washed with PBS and 4 mL of lysis buffer (20 mM HEPES, 1% Triton X-100, 150 mM NaCl, 1 mM EDTA, and 10% glycerol) containing protease inhibitor cocktail was added. Cells were scraped and lysate was incubated at 4° C. under rotary agitation for 1 h. Lysate was centrifuged at 14,000×g for 10 min at 4° C. Supernatant was transferred to a new tube and an aliquot was taken as the input. […] For Western blots, 10 μg/mL Chicken Anti-FLAG (Aves labs ET-DY100) and IgY control (R&D Systems AB-101-C) antibodies were biotinylated (Thermo Fisher Scientific 90407) and added to the respective conditions. Lysates with antibodies were incubated at 4° C. under rotary agitation overnight. For each mL of lysate, 50 μL of Pierce Protein A/G Magnetic Beads (Mass spectrometry; Thermo Fisher Scientific 88803) or Pierce Streptavidin Magnetic Beads (Western blot; Thermo Fisher Scientific 88817) was washed twice with lysis buffer. Lysates with antibodies were added to the beads and incubated at 4° C. under rotary agitation for 4 h. Beads were washed with lysis buffer 3 times and resuspended in lysis buffer for storage. […] This solution was subjected to solid phase extraction to concentrate the peptides and remove unwanted reagents followed by injection onto a Shimadzu HPLC with fraction collector. Eight fractions were collected and after concentration were injected on a Waters NanoAcquity HPLC equipped with a self-packed Aeris 3 μm C18 analytical column 0.075 mm by 20 cm, (Phenomenex). Peptides were eluted using standard reverse-phase gradients. The effluent from the column was analyzed using a Thermo Orbitrap Elite mass spectrometer (nanospray configuration) operated in a data dependent manner for 54 minutes. […] Scaffold Q+S (Proteome Software) was used to provide consensus reports for the identified proteins.
# [1] = Co-IP with FLAG antibody, C-terminally FLAG-tagged B3GNT2, mass spectrometry count, unit not given
# [2] = Co-IP with FLAG antibody, N-terminally FLAG-tagged B3GNT2, mass spectrometry count, unit not given
# [3] = Co-IP with IgG control antibody, C-terminally FLAG-tagged B3GNT2, mass spectrometry count, unit not given
# [4] = Co-IP with IgG control antibody, N-terminally FLAG-tagged B3GNT2, mass spectrometry count, unit not given
# [5] = Co-IP followed by mass spectrometry of B3GNT2, C-term tag, FLAG pull-down
# [6] = Co-IP followed by mass spectrometry of B3GNT2, C-term tag, IgG pull-down
# [7] = Co-IP followed by mass spectrometry of B3GNT2, N-term tag, FLAG pull-down
# [8] = Co-IP followed by mass spectrometry of B3GNT2, N-term tag, IgG pull-down
Substance,C-term flag [1],N-term FLAG [2],C-term IgG [3],N-term IgG [4],C-term flag [5],C-term IgG [6],N-term FLAG [7],N-term IgG [8]
TUBA1B,0,76,0,0,–,–,–,–
HSPA5,130,70,12,9,–,–,–,–
PSMA7,–,–,–,–,2,0,4,0
TCP1,–,–,–,–,3,0,0,0
SUPT16H,–,–,–,–,3,0,0,0
PSMC4,0,3,0,0,–,–,–,–
GALNT2,2,0,0,0,–,–,–,–
TFAM,–,–,–,–,3,0,0,0
PRRC2C,–,–,–,–,15,6,6,11
LCN1,–,–,–,–,11,6,11,9
CEP170,2,0,0,0,–,–,–,–
PKM,–,–,–,–,3,2,3,2
RPL28,–,–,–,–,16,3,8,3
LRP2,2,0,0,0,–,–,–,–
PRRC2A,–,–,–,–,5,3,2,3
SLC27A4,2,0,0,0,–,–,–,–
PSMA1,0,2,0,0,–,–,–,–
SPTAN1,–,–,–,–,3,0,0,0
HERC2,3,0,0,0,–,–,–,–
PSMD3,0,3,0,0,–,–,–,–
LYZ,6,3,0,4,–,–,–,–

Substance,C-term flag [1],N-term FLAG [2],C-term IgG [3],N-term IgG [4],C-term flag [5],C-term IgG [6],N-term FLAG [7],N-term IgG [8]
HADHA,2,0,0,0,–,–,–,–
MAP1B,2,0,0,0,–,–,–,–
PABPC1,–,–,–,–,41,30,31,37
FLG,–,–,–,–,22,15,29,20
ERP29,0,2,0,0,–,–,–,–
CALU,13,10,0,0,–,–,–,–
EIF4A1,6,2,0,0,–,–,–,–
FKBP10,16,0,0,0,–,–,–,–
XRCC5,3,0,0,0,–,–,–,–
TECR,9,0,0,0,–,–,–,–
MYH11,–,–,–,–,7,5,2,3
NPM1,8,0,0,0,–,–,–,–
HNRNPK,–,–,–,–,12,10,9,8
PCBP1,4,4,3,0,–,–,–,–
TUBB4B,119,161,13,0,–,–,–,–
GBF1,–,–,–,–,5,0,0,0
PPIB,2,0,0,0,–,–,–,–
IPO13,2,0,0,0,–,–,–,–
FABP5,8,6,0,2,–,–,–,–
P01837.1,–,–,–,–,146,108,89,87
PRKDC,11,24,0,0,–,–,–,–

Substance,C-term flag [1],N-term FLAG [2],C-term IgG [3],N-term IgG [4],C-term flag [5],C-term IgG [6],N-term FLAG [7],N-term IgG [8]
ABCD1,2,0,0,0,–,–,–,–
RAB1B,2,0,0,0,–,–,–,–
ENO1,4,5,2,2,–,–,–,–
EMD,–,–,–,–,2,2,2,0
ELOC,2,0,0,0,–,–,–,–
HUWE1,–,–,–,–,0,0,3,0
CTSD,4,3,0,3,–,–,–,–
LAMB1,2,0,0,0,–,–,–,–
PIGR,5,2,0,0,–,–,–,–
SRSF3,–,–,–,–,7,3,6,4
VIM,–,–,–,–,411,337,402,452
PSMB5,–,–,–,–,0,0,4,0
SUMF2,3,0,0,0,–,–,–,–
PCMT1,–,–,–,–,2,0,4,0
ATM,0,3,0,0,–,–,–,–
PPIA,0,6,0,0,–,–,–,–
EIF4G1,–,–,–,–,6,2,2,2
DNAJA2,–,–,–,–,3,0,3,0
SQSTM1,43,3,3,0,–,–,–,–
MON2,3,0,0,0,–,–,–,–
LARP4,2,0,0,0,–,–,–,–
